Source: paper doi:10.1101/2020.09.30.318261 (bioRxiv, 2020)

Columns and labels:
Experiment in all cases: ELISA
[1] = target: SARS-CoV-2 spike S1B domain (receptor binding domain) (SARS-CoV-2 Wuhan-Hu-1, UniProt P0DTC2)
[2] = target: SARS-CoV spike S1B domain (receptor binding domain) (SARS-CoV Urbani, UniProt P59594)
[3] = target: WIV16 spike receptor binding domain (S1B domain) (SARS-like coronavirus WIV16, strain)

Measured: binding result

B1: human monoclonal antibody 47D11 (antibody, V domains shown)
VH: QVQLQESGPGLVKPSETLSLTCSVSGGSISSHYWSWIRQPPGKGLEWIGYIYYSGSTNHNPSLKSRVTISVDTSKNQFSLKLSSVTAADTAVYYCARGVLLWFGEPIFEIWGQGTMVTVSS
VL: EIVMTQSPATLSVSPGERATLSCRASQSVSSSLAWYQQKPGQAPRLLIYGASTRAPGIPARFSGSGSGTEFTLTISSLQSEDFAVYYCQQYNNWPLTFGGGTKVEI
binds: all assays above
